# Laboratory results as given in patent US6300103A, “Anti-microbial proteins” (Syngenta Participants AG, priority 1993, dated 2001).
# Ends that are not written are not given here.
# Tested on: C. beticola
# Experiment: microtiter plate bioassay of inhibition of fungal growth (absorbance at 620 nm)
# Assay type: cell-based
# Settings: spores of C. beticola in 96 well micro-titre plates, FIGS. 4, 7-8 (10 ug alone, 2 ug each in combination)
# Description: The thus obtained IWF is fractionated by cation exchange chromatography on a 10 ml CM-Sepharose column (Pharmacia LKB) pre-equilibrated in starting buffer (20 mM HAc (pH 4.5)). The fractionation is performed at 4° C. at a flow rate of 25 ml/h. Fractions of 3 ml are collected. Proteins not bound to the column are removed by extensive washing of the column with starting buffer. Bound proteins are eluted by applying to the column further starting buffer comprising stepwise increased salt concentrations: viz, 0.1 M NaCg, 0.3 M NACl and 0.5 M NaCl. The absorbance at 280 nm of the eluate is measured, and fractions judged to comprise protein are tested for their anti-fungal activity against C. beticola using the microtiter plate bioassay described previously (PCT Patent Application No. PCT/DK92/00108, Publication No. WO 92/17591, now assigned to Sandoz LTD). […] The inhibition of fungal growth is measured in 96 well micro-titre plates at 620 nm, essentially as described in WO 92/17591. […] The proteins, either alone or in combination with WIN N (which is purified from barley grain or stressed barley leaf as described by Hejgaard et al (FEBS Letters, 307, 389-392 (1992)), and/or a protein having a sequence corresponding to at least one of those given in SEQ ID Nos. 4-6, are incubated with spores of C. beticola. The assay mix (240 ul) contains 100 ul of potato dextrose broth (Difco), 40 ul protein sample (or buffer control) in 100 mM Tris and 20 mM NaCl (pH 8.0) as well as approximately 400 spores in 100 ul water. The micro-titre plates are sealed with tape to avoid evaporation and contamination and subsequently incubated at room temperature on an agitator operated at 200 rpm. The absorbance at 620 nm is measured each day for 8 days and plotted for each concentration of protein vs time.
row,Molecule,anti-fungal activity (inhibition of fungal growth)
1,"peaks 1 and 2: anti-microbial protein of 2.5-3 kDa (dimer about 5 kDa) from sugar beet, peaks 1 and 2 in FIG. 6 (SGECNMYGRCPPGYCCSKFGYCGVGRAYCG; cysteine pairing not given here; also: dimer about 5 kDa)",significant anti-fungal activity
2,"peak 3.1: anti-microbial protein of about 7 kDa from sugar beet leaf intercellular washing fluid, peak 3.1 in FIG. 3 (protein) ITCGLVASKLAPCIGYLQGAPGPSAGCCGGIKGLNSAAASPADRKTACTCLKSAATSIKGINYGKAASLPRQCGVSVPYAISPNTNCNAIH",significant anti-fungal activity
3,"peak 3.2: anti-microbial protein of about 7 kDa from sugar beet leaf intercellular washing fluid, peak 3.2 in FIG. 3 (protein) ITCGLVASKLAPCIGYLQGAPGPSAGCCGGIKGLNSAAASPADRKTACTCLKSAATSMKGINYGKAASLPRQCGVSIPYAISPNTNCNAIH",significant anti-fungal activity
